Experimental findings from a protein production outcome set (Wang et al. 2014) are described below.

This data set in a line: label from the status in PepcDB records.
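Also: failed if final PepcDB status was selected cloned or expressed and not failed if soluble or beyond.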

Turning to “MNTTPFPALSAETLLAVNTVGQWLAQNDFSGEQPYSSDCVVLAGNAVIPTIDAACRIAKAQGVPLLISGGIGHSTPFLYAVIARHPRYHTIRTSGRAEAAILADIANQFWHIPAEKIWLEDRSTNCGENARFSCALIRQAKENINTAIVVQDPTMQRRTIAAFRRVTNDDTDAPRWLSFPGFVPVLRHLNDGTRFANVEEGIWTVERYLSLIAGELPRLRDDETGYGPRGKDFIIHVDIPRDIENAWQVLQADTTLRSALGQRALRLEHHHHHH”, the protein production entry is “not failed”.

Take “MNTTQGEYTTTAKWLHWLMATLIALAWLIGFYVSDLPKGPEKAAIMAWHKGLGTAVLALITVRLAWRLLHPPPRLPDTLSPGLQRAAHSAHWTLYGLMIAQPLSGWAVSSANGYPVKLFGLITLPALVEKNEVLAQTFVEIHEFLAWGLALLVVGHVVMAIKHHHVDRNGILHRMLPGRRPTSD”: the protein production result is “failed”.

With “MNTVDEDIKFKEVPGITNILLLSSDARPGEDVSRSDSIMILTIDNINKKLKVTSLMRDMLVKIDGHGEEKLNHAFAYGGPTKTIETIQNNFGIKLNNYVIVDFNAFVKVIDAINGIEVTVKDYELDELNKYILDGGGSEEDLLPSPGTYNLNGYQALSYARIRKVGNGEYERTERQRAVLQIALEKVKDMSTVKLVSLLNELFPYVKTNISLGNAMDYGFTALNVGKKCNFEIEQFRVPLDSISKGGIINNKGWVFVIDKVETSKALQEFIFNDNKNYEPDTSNFDSIIEQYFNDYDIKDDTTHPDYEYVPSINTNGNFEKPKNNSGNSSNNNSNNKVEKPSNQGNSVNSSNKPSNGSTSTGNNSTEKPNTSEKPSIPQETPTEKPLEHHHHHH”, the protein production entry is recorded as “failed”.

As for “MNTVPLKPQRLLSLDVFRGMTIVLMIFVNGQAAIDPYPIFEHVDWNGCTLADLVFPFFLFIVGLTSVISLKNQMERKAKTSLYSAIIERSVVLFLLGLFLNVFPHPIEFDSIRIYGILQRIAVCYLISAFIYLNTSIKTQFFIFLVLLLGYWIIMTQVPVPGYGANQLTKDGSWVSYFDQLFFSASHLYEKTYDPEGFLSTFTSIATTLSGVLAGSLLISPCNQFKKFYLLAGIGLLFLLLGWLWNMSFPINKNLWTSSYVLWTSGLALLAFAFCYLLIDRFGVKKWSVFFKVFGMNALFAFVFHVLLLKLQYAFKITTPDGSKMVLISYLKDYFFGGFSNHNAALLYSICFLFLNFLVVLILYKRNVFIRI”, the protein production result is listed as “failed”.

In the case of “MNTYLKNSPGFWIGRIHHKLKNRMNQRLKPYDLTAEQRLILLRLFEFGEMTQQQLCQKTFTEPSNITLTLRRMESHGYVRKKPHPKDKRASLIEATPKALSIQNELERIGLEITDSLLLEVDPSEKETLLRVLQAMYQKMLQEEAIEEFSF”, the protein production result is listed as “failed”.

In the case of “MNVEKLKRLQAQVRIGGKGTPRRKKKVMHQTAATDDKKLQSSLKKLSVSTIPGIEEVNIIKDDLTVIHFNNPKAQASLSANTFAVTGHGETRKVVEMLPDILPQLGQETVVQLRMYANAMNSQKGAPGSGDGPLPAEEDDDVPLLVGDFDEVAKVEATKQPVHEPKESAEIKAKDKQQQQPKKEQKQSAKVPETTNPSENPKEKQENKKGQAKNNKKGDPQTNKDKTNKSKDQAKGQPAPQANKETTQAAQALKQNPSKPAVQQKKDQVLAVDQKIEANGAIQKAQQPKPAETKSTDQKVEPKSAEKQVDKAKPIEQTKTKESKVEHPKPAQKQLDQNTQAKPTAERSEAKPVVPTPEPQKSAPPAVQTLAQIVALPAEKPANEAVAAPKAEEQKKDSSGPAKVEPAITPSAPQPVTTAEPPKSALKQDSPPKSAPKQGSPPKNVPKQESPPQSAPKQDSPPKGAPKQDSPPKGAPKQDSPPKGAPKQDSAPQQKTPPPVKQEVAPAKQDEPPAKQDAPPAKQDAPVPVPEVIKTLAPEVPNVSQAPAQPQGQAALASEKPADAPKAIEEPKAAPKKESPPPTKPVTATVPVAPATPAEAPSPLAPSTPPSTPTSVPPSAATVTPPSPATVTPPSPAVVTPPQKQSAAPQAGIKKQEAGTKTKQQQPANKPQQPQKQPPGGAGGSAGPGGNKGVQKQPNPNAKPAVAPKPAQATPKPAAASPKASPNQTNPQQQQGKAANKASPPKQTGPTGGQQKSAANASKATASPKSAASPKATSPKAGTPTNPASASGGPN”, the protein production entry was “failed”.

As to “MNVFAFSISGGGSERSYKETEKTSAMTTTHSTKLQPSQAILFKMREDAPPLNLTEEMPPPFPTKANYLIHPVRLEHHHHHH”, the protein production result is “failed”.

With “MNVIGKVTVLPQLPAEIARLSELAYNLYWSWTPRAQALYRDLSPELWERFQHNPVRLLLEADQDRLNAAAQDPAYLGRYAQVMADFDAYMGKKDTWAARHAPQMKPVAYFSMEYAFHESLPIYSGGLGVLAGDHCKSASDLGLPFTAVGMLFSQGYFRQLFDKDGWQNEAYDELDLTTLPIQPAQSAAGEDIRVSVRIAGREVAVKVWTLQVGRVRVLLLDSNVPDNSEDDRKLTARLYGGNQELRVQQYVLLGVAGIRALRALDVPASVYHMNEGHAALMALERMREYVAAGQDFRTAAELAASSTLFTTHTPVAAGNDAFTYELMDKYIGEWPGLLHAGRDELYALARHDQQWDGHTVPAFSMTVFALSMSRAANGVSELHGEVSRGMWNFLYPGAEENEVPIGHVTNGAHNLTFTSQRMRDLLSTVLPEDWTERLEDETMWQAVEQLTEEQLSNVQREMKREMITFVRGRVREQLLRNGASAADVAATDNLLDEGTLTIGFARRFATYKRATLLLRDKPRLAAIVNNPERPVQFVFAGKAHPADNPGKAFIQEIYRTSQEPEFRGKIVILENYDMNVARHLVQGVDIWLNNPRRPLEASGTSGMKASFNGSPNFSVLDGWWREGYDGTNGWPIGEEREYADLNVQDDADAFDLYQRLEHEIAPRYYGHAQGNASWAHTVRDAIETVSPRFSMQRQVLDYVQQYYLPLGQRGTQLADHGGARARDLAAWKAWVRQQWPHTSISAQANLPATARPGEQVTVSAQVNPAGIRPEELRVEAVLKRGDEVQRYPLAPGEGGQYSAEIPLDDSGLYSVGVRMLPLIDGLSNDLEAGLIKWA”, the protein production result is recorded as “failed”.

Regarding “MNVLDGAALEIGVPTVRTGIAGDGTLISVSGGSGADATPESDRILGALVLDDTHIDAVAVRRRRRGQGIGTALVEAALDRRDRLTAEFDADVRPFYEQLGFDVELLDDEDGRFRGIRK”, the protein production result is recorded as “failed”.

As for “MNVSRLCSLYPTLLIPLLFVAGCGLFASSTAPVSRSPESMAREAEEFQSSRRFEDAIAQWRKVKESYISPELITLAEIKIADAQFDSGNYIEAAASYEEFRKLHPNHEKSAYALYRQGLSYFNQIHGFDTDQTPVSNTVTIFESFLRLYPQSEHAEEVRNKLDAARQNQVQYEIYVGQFYYRTEKYTSAIKRLEDALKRYPRSPLHDETLYYLGKAYIKAGDKAGGREAFQRLFNEFRTSKYVDEARSFLDKNF”, the protein production entry is reported as “failed”.

Turning to “MNWGEGEWNSFFHFFTKEFINMSESFKELFEQSIAGAQFYPGAIITAKVIDIDDDFVTLNAGLKSEGIVAVEEFYDKNGELEVKVGDTVEVALDSVEDGHGETLLSREKAKRQEAWRKLSKCHENNETVTGLISGKVKGGFTVEIGSIRAFLPGSLVDVRPVRDPSYLEGKELEFKVIKMDLKRNNIVVSRRAVVEEESSADRQALLESLHDGQELHGIVKNLTDYGAFIDLGGIDGLLHITDISWKRVKHPSEVLSVGQDVKVKVLSFDSERNRVSLGMKQLGNDPWVDLVERYPIGKRLQGKVTNITDYGCFVEIEEGVEGLVHMSEMDWTNKNVHPSKVVSLGDVVDVMVLEIDEERRRISLGMKQCVGNPWQQFASTHNKGEKVKGKIRSITDFGIFIGLDGDIDGLVHLSDISWTVPGEEAVKQFKKGQELEAVILAIDPERERISLGLKQLEGDSFASFAETYTKGSIVKGTVTAVEPKTVTVALAEDVSGTIRVSELSDERVDDATTIVKVGDEVEAKITNIDRKNRTISLSVKAKDAQDEADAIKKYSRTEAASTTLGDLLKEKMASKEGELEHHHHHH”, the protein production result is listed as “not failed”.

As to “MNWIILTIAGCFEVLFTFCMGKVKETTGTEMYLWFTGFLIATLISMLLLVKATHNLPIGTAYAVWTGIGAVGTVLVGILVFKEPAGFWRLFFIVMLIGSIIGLKMVSHG”, the protein production result was “failed”.

Take “MNWKRLVQFYSVPPSQAALALGMIGLGQAWALYVPDIGTPIRPFLASFGALLLAPVLIKYATNPRLFMADIKHPLSGSLMAPMSMALLILTDYLASVAPLIAYPLWCLAVLLHFTMMVLFFGFQLMNFKMSNIVPSWFLYPVGLISSSLAGSQFGHNLFSETLAIMCIGIYFFMLPLVLYRLVFFGSLPRRARPTLAIMAAPVNLSLAAYLVNFPQPDPILTGALAGIAITMTLLIYLCYFRLLRLKFQPSIAAVTFPSVISAIAMHRLTSFFAQSHPQWHWLHDFGFLELSIATVLVVWVSAGYVKMYWPEIVRTPTKQA”: the protein production entry is “failed”.

In the case of “MNYEEIVCDANNLYRAYKASVKTSKWKETTQKFMMNFLRYIFSIQDDLINRTLQNGPTQEFTLFERGRVRPITSIQIRDRIIRHVLCDEILLPEVKKHIIYDNCASIKGRGISHQRDRFEVHLRKYYRLYGNEGWILFGDFSKFYDNIIHEIAKRELLRLFDDDEFIDWLLTQIFDGFKIDVSYMTDEEYATCMTDTFNKLEYRNIPESKLTGEKWMEKSVNIGDQLSQVIGIYYPYRIDNYVKYVRSQKFYGRYMDDWYIMNPSKEELLDLLDHIHQIAEEYGIHINRKKTRIVKISSTYKFLQIKYSLTDSGKVIKRINPKRVTAMRRKLKRLAVKVKNEEISYENVENMFRSWMGGFYKLLSKEQRKNLIGLYEDLFEKSIEIVNKKMIIVDKTR”, the protein production entry is recorded as “failed”.

“MNYGFVKVAAAVPRVKVADCKFNSERLEGLITIAEGKGVQILTFPEMCITGYTCGDLFAQQLLLEQAEMALIQILNSTRQLDIISILGMPVVVNSTVINAAVVIQKGKILGVVPKTYLPNYKEFYEQRWFTSALQVSENSVRLCGQIVPMGNNLLFETAETTFGIEICEDLWATVPPSSSLALQGAEIIFNLSADDEGIGKHNYLCSLISQQSARCISGYVFSSSGFGESTTDVVFAGNGLIYENGYLLARSERFCMEEQLIINEIDVECIRAERRVNTTFAANKANCPGKEAVRISTEFVNSKDLNLTRTFNPHPFVPQGNELNSRCEEIFSIQIAGLAQRLLHTGAKTAVIGISGGLDSTLALLVCVKTFDKLGLSRKDILGITMPGFGTTDRTYHNAIDLMNSLGVSIREISIREACIQHFKDIGHDLNIHDVTYENSQARERTQILMDIANQTWGMVIGTGDLSELALGWATYNGDHMSMYGVNAGIPKTLVKHLVQWVAENGMDETSKATLLDIVDTPISPELEHHHHHH”: the protein production result is on record as “not failed”.

In the case of “MNYKVLAYITAYNDYFALNRCIDGLINQTYKIDYLLIVDNSSRPIPIQKLGNNLSIEVQHHPENIGVAGGLTLGIQYAIHKKFDFIWLFDQDSTPYENALENLIYFYDKYINKSEIGILSCAVQDRETGQINCGFIYKNYRFYQQQIDSRKAVYECDAVITSGTLLNCHAAKEIGLPNESLFMDAVDFDYCMKLRKQDYKIFTVCNAKINHRFGNSKSIQLFNRTKFIYLYSSLRYFYVHRNHTYLETRLAKNCLFFIISTFYRIFKSFRKIFVILLFEDSQRLLKIYACSKGTVDGLLGKLGKTWT”, the protein production entry was “failed”.

“MNYSRIAEAIEYIRAHYKEQPGLDEVAEKVHLSPFHFQRIFTEWAGISPKKFLQYISLEHHHHHH”: the protein production result is given as “failed”.

Take “MNYVELLGYLAMLLVGLSFLMKDVIKLRFVNALGCICFSIYGILIGSFPVAALNGFVACTNIYFLINNNKD”: the protein production result was “failed”.

As to “MNYYGTSMWASDNNTASNSDSSLNLLGILLLASENNKLINNTVLTNLYGVNLMAESTGIGDKTGPSENILASNIISYNLGTGILFDESYGNLIYNNSFDNIWNVEDESLNTWNSSEIGNYWSDYEGEDADGDGVGDTPYLINSHTGSMDYLPVTRSSDFPELEHHHHHH”, the protein production entry is “failed”.
